In PMC11908827, “PpERF17 alleviates peach fruit postharvest chilling injury under elevated CO2 by activating jasmonic acid and γ-aminobutyric acid biosynthesis”:

Key:
PpERF17 [1] = biological target: T1, PpERF17 (Prunus persica (peach), cv. …, UniProt M5W9J0 1-215); assay: EMSA; Chemiluminescent EMSA Kit (Beyotime); buffer, salt, pH and temperature not stated; details: protein: recombinant, tags: GST (N-terminal, pGEX-4T-1), label: biotin
T1 sequence: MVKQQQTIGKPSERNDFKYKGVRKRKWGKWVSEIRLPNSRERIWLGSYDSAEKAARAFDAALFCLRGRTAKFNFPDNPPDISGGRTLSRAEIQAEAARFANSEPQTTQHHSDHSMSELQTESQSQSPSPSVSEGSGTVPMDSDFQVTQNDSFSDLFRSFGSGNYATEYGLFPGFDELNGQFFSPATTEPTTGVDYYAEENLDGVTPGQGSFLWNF

PpERF17 [2] = biological target: T1, PpERF17; assay: EMSA; cold probe 50x/500x competes; Chemiluminescent EMSA Kit (Beyotime); buffer, salt, pH and temperature not stated; details: protein: recombinant; tags: GST (N-terminal, pGEX-4T-1); label: biotin; blunt

B1: PpERF17-PpAOS mutant probe (dsDNA)
DNA 1: ATGGTTCATGTACCCTTTTTTTTTCACACTCACCTTC
DNA 2: GAAGGTGAGTGTGAAAAAAAAAGGGTACATGAACCAT
PpERF17 [1]; blunt
  binding result: no binding

B2: PpERF17-PpAOS probe (dsDNA)
DNA 1: ATGGTTCATGTACCCCACCGTCTTCACACTCACCTTC
DNA 2: GAAGGTGAGTGTGAAGACGGTGGGGTACATGAACCAT
PpERF17 [2]
  binding result: binds

B3: PpERF17-PpGAD probe (dsDNA)
DNA 1: CATAAGGTCGGAAGGCACCGTCCATGTTCCAACTTGG
DNA 2: CCAAGTTGGAACATGGACGGTGCCTTCCGACCTTATG
PpERF17 [2]
  binding result: binds

B4: PpERF17-PpOPR3 probe (dsDNA)
DNA 1: TAGAAACCAAAACGACACCGGCCATAAATAAATCCGC
DNA 2: GCGGATTTATTTATGGCCGGTGTCGTTTTGGTTTCTA
PpERF17 [2]
  binding result: binds

B5: PpERF17-Pp13S-LOX mutant probe (dsDNA)
DNA 1: TCTTAAAAACGTGAAAAAAAAAAGATCAACAGTACCC
DNA 2: GGGTACTGTTGATCTTTTTTTTTTCACGTTTTTAAGA
PpERF17 [1]; blunt
  binding result: no binding

B6: PpERF17-PpGAD mutant probe (dsDNA)
DNA 1: CATAAAAAAAAAAGGTTTTTTTTTGTTCCAACTTGG
DNA 2: CCAAGTTGGAACAAAAAAAAAACCTTTTTTTTTATG
PpERF17 [1]
  binding result: no binding

B7: PpERF17-PpOPR3 mutant probe (dsDNA)
DNA 1: TAGAAACCAAAACGATTTTTTTTTTAAATAAATCCGC
DNA 2: GCGGATTTATTTAAAAAAAAAATCGTTTTGGTTTCTA
PpERF17 [1]; blunt
  binding result: no binding

B8: PpERF17-Pp13S-LOX probe (dsDNA)
DNA 1: TCTTAAAAACGTGTGGACGGTGAGATCAACAGTACCC
DNA 2: GGGTACTGTTGATCTCACCGTCCACACGTTTTTAAGA
PpERF17 [2]
  binding result: binds
